Measured values reported in the supplement of paper PMC10065799, “High-throughput profiling of sequence recognition by tyrosine kinases and SH2 domains using bacterial peptide display” (eLife, 2023).

How the values were obtained:
c-Src SH2 = assay: SH2 binding enrichment of the phosphorylated peptide, bacterial display (enrichment ratio); higher = better substrate or ligand; peptides without Tyr show the background
Grb2 SH2 = Grb2 SH2 (UniProt P62993); assay: as above
SHP2-C SH2 = assay: as above
MERTK = MERTK (UniProt Q12866); assay: phosphorylation enrichment, bacterial display (enrichment ratio); higher = better substrate or ligand; peptides without Tyr show the background
EPHB2 = EPHB2 (UniProt P29323); assay: as above
FGFR3 = FGFR3 (UniProt P22607); assay: as above
AncSZ = assay: as above
Fyn = Fyn (UniProt P06241); assay: as above
Hck = Hck (UniProt P08631); assay: as above
Fes = Fes (UniProt P07332); assay: as above
EPHB1 = EPHB1 (UniProt P54762); assay: as above
c-Src = assay: as above
c-Abl (mouse) = assay: as above
Jak2 = Jak2 (UniProt O60674); assay: as above
Fer (mouse) = assay: as above
FGFR1 = FGFR1 (UniProt P11362); assay: as above
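For SH2 binding enrichment of the phosphorylated peptide, bacterial display in this document: peptide library displayed on the E. coli surface as eCPX fusions, selected cells deep-sequenced, score is each peptide's frequency after selection divided by its frequency in the input.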
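For phosphorylation enrichment, bacterial display in this document: 11-residue human phosphosite peptides and single-mutation variants displayed on the E. coli surface, counted by deep sequencing, each peptide's frequency after selection divided by its frequency in the unselected input library; frequency after pTyr selection over input frequency; kinase dosed for 20-30% of maximal phosphorylation in three min.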

Sequence of FGFR1 (P11362 whole entry, looked up, the tested form may be a part): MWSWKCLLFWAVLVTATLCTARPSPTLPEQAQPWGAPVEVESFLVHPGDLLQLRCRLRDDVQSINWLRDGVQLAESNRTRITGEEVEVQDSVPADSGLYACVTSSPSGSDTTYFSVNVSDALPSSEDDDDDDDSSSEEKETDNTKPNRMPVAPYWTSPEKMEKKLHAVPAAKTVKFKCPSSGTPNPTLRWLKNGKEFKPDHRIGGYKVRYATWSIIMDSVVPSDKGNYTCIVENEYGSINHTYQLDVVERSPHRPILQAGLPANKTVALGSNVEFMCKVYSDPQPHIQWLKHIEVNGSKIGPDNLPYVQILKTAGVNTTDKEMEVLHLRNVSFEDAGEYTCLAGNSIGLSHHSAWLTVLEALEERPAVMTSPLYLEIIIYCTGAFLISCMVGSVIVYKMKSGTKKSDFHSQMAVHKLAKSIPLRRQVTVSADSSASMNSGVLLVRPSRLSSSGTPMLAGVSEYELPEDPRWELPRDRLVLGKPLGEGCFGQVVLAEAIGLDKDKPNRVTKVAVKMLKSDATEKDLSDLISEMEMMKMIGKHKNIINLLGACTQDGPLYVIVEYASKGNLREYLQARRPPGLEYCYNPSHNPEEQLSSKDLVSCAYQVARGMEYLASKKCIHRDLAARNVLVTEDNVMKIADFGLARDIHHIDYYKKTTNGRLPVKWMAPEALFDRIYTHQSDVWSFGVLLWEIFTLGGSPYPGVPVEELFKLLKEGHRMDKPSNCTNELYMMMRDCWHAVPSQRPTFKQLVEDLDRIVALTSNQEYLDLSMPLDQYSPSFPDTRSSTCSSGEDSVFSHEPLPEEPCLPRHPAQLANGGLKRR
Sequence of Fyn (P06241 whole entry, looked up): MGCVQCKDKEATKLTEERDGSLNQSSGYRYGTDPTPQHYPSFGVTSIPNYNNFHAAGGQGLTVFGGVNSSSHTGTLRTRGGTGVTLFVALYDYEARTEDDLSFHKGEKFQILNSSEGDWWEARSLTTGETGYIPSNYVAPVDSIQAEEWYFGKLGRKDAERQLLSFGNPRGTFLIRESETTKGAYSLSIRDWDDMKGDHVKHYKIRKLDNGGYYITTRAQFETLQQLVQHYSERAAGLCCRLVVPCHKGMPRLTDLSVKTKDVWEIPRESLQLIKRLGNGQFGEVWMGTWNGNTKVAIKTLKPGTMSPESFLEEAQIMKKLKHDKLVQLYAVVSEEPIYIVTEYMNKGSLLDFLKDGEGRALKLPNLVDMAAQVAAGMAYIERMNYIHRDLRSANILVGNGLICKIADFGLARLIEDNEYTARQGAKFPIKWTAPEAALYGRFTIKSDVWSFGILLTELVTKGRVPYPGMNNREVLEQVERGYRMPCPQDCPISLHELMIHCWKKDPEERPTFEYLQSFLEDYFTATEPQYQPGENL
Sequence of EPHB1 (P54762 whole entry, looked up): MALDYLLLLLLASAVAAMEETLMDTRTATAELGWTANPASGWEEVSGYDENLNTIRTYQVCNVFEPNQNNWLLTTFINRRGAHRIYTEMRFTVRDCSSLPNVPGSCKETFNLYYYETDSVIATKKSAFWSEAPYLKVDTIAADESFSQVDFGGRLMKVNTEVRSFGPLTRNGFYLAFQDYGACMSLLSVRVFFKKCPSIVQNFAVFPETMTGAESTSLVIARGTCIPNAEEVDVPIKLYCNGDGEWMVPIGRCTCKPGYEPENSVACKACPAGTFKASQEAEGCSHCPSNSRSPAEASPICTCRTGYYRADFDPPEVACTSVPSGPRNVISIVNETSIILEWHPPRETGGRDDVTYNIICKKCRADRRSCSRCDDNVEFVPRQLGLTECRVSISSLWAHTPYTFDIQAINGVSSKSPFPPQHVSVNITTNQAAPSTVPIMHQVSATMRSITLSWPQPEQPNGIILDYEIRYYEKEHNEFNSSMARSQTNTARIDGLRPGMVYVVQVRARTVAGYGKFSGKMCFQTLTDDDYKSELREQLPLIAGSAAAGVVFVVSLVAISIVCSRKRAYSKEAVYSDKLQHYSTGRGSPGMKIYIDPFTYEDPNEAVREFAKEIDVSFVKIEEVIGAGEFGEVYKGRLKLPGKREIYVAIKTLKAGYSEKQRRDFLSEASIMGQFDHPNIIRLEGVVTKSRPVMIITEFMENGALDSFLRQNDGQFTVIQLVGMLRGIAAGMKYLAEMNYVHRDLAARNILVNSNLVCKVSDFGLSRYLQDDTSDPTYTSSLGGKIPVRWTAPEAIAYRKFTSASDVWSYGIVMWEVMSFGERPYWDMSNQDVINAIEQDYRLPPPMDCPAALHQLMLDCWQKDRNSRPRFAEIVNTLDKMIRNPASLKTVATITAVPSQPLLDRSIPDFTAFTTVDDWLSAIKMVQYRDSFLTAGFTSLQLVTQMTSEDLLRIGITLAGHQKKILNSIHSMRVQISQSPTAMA
Sequence of Grb2 SH2 (P62993 whole entry, looked up): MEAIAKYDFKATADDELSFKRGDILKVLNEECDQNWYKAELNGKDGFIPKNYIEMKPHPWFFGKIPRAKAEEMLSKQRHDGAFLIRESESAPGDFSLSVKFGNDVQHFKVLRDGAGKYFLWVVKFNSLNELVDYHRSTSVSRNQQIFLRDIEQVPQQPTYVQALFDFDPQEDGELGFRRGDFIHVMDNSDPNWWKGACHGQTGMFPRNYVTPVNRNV
Sequence of FGFR3 (P22607 whole entry, looked up): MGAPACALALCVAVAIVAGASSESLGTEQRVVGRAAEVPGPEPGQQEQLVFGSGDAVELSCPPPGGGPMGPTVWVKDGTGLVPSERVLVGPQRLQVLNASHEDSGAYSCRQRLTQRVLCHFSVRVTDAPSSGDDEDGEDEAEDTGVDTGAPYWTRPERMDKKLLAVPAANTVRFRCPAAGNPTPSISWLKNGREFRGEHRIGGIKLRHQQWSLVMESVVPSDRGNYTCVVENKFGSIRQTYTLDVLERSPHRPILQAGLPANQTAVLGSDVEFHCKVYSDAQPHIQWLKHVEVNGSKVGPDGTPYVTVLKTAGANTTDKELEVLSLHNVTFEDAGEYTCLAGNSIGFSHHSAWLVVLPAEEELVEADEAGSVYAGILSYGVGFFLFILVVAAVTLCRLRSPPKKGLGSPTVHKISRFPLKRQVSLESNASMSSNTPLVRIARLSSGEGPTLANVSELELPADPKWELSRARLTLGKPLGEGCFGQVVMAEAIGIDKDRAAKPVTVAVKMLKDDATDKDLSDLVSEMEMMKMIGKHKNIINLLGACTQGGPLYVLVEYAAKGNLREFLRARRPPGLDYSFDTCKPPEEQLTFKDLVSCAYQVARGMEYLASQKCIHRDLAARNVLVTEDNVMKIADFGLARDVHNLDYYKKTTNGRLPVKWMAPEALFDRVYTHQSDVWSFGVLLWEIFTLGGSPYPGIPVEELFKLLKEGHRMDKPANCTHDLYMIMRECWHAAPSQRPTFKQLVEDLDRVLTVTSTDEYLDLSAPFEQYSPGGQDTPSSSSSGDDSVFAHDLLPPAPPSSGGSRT
Sequence of EPHB2 (P29323 whole entry, looked up): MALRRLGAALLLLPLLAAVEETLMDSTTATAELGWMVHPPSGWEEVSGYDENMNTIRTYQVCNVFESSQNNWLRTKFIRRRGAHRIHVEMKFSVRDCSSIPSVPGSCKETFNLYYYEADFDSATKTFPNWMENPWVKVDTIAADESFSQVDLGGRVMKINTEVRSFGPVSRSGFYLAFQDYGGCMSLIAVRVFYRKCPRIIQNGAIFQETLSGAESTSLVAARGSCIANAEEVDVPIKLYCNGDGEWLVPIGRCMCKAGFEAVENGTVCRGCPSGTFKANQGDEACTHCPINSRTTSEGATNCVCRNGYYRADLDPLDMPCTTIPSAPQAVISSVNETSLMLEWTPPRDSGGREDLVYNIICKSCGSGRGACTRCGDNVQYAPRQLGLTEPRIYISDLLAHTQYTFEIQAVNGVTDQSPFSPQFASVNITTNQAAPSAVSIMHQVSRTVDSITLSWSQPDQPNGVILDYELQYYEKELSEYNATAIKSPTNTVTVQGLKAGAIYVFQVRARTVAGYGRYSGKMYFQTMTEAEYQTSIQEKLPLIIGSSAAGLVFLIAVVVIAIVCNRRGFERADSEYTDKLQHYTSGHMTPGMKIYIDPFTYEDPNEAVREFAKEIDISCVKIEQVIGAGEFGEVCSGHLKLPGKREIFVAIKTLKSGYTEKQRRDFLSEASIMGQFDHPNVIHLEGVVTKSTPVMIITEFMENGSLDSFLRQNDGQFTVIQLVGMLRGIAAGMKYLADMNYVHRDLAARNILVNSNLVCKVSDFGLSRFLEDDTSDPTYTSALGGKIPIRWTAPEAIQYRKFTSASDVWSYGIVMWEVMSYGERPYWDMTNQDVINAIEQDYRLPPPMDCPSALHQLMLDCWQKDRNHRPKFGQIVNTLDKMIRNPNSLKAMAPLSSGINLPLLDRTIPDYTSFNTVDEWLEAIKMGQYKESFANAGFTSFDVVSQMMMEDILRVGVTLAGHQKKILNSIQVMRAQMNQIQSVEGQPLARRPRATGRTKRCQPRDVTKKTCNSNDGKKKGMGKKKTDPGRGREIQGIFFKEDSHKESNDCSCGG
Sequence of Hck (P08631 whole entry, looked up): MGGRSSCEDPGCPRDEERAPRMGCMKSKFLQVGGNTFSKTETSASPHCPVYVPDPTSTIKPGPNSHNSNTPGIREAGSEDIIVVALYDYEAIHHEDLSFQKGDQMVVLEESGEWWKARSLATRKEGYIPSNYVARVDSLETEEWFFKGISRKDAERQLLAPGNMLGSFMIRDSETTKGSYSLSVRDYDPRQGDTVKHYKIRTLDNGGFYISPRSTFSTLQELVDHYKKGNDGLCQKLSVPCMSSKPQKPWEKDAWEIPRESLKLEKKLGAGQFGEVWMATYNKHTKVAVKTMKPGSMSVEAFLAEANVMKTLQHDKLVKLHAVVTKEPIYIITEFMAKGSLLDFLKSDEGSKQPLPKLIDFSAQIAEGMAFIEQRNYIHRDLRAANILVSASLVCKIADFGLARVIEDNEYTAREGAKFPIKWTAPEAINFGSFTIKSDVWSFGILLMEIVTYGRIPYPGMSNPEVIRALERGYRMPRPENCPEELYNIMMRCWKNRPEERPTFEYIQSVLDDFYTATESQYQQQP

Sequence | SH2 binding enrichment (c-Src SH2) | SH2 binding enrichment (Grb2 SH2) | SH2 binding enrichment (SHP2-C SH2) | phosphorylation enrichment (MERTK) | phosphorylation enrichment (EPHB2) | phosphorylation enrichment (FGFR3) | phosphorylation enrichment (AncSZ) | phosphorylation enrichment (Fyn) | phosphorylation enrichment (Hck) | phosphorylation enrichment (Fes) | phosphorylation enrichment (EPHB1) | phosphorylation enrichment (c-Src) | phosphorylation enrichment (c-Abl (mouse)) | phosphorylation enrichment (Jak2) | phosphorylation enrichment (Fer (mouse)) | phosphorylation enrichment (FGFR1)
QTSTDYDIRFF [CSNK2A1_Y131_L128S_YF] | 0.477 | 1.15 | 0.864 | 0.688 | 1.22 | 1.41 | 2.12 | 1.43 | 0.968 | 1.81 | 1.27 | 0.892 | 1.18 | 1.61 | 0.809 | 0.667
NQDRTYFERVR [SPEN_Y632_S635R_YF] | 0.572 | 0.857 | 0.547 | 0.377 | 0.411 | 0.522 | 0.607 | 0.419 | 0.812 | 0.648 | 0.473 | 0.567 | 0.538 | 0.601 | 0.401 | 0.421
SSTASYFKAPG [RFX2_Y108_E110K] | 0.608 | 0.891 | 0.885 | 0.415 | 0.394 | 0.474 | 0.598 | 0.4 | 0.431 | 0.619 | 0.471 | 0.394 | 0.418 | 0.53 | 0.339 | 0.548
ADYYDYGHGLS [KHDRBS3_Y304] | 0.601 | 1.04 | 0.634 | 4.16 | 20.5 | 16.8 | 3.92 | 6.6 | 6.46 | 1.11 | 17.9 | 4.65 | 0.986 | 5.75 | 1.95 | 18.5
CTLSVYRQLHN [LUZP1_Y1036] | 0.464 | 0.655 | 0.608 | 0.435 | 0.631 | 0.823 | 1.1 | 0.466 | 0.456 | 1.29 | 0.622 | 0.412 | 0.771 | 1.07 | 0.536 | 0.513
SSSGGYGGGFG [KRT19_Y61_A60G_YF] | 0.375 | 1.09 | 0.481 | 0.398 | 0.346 | 0.477 | 0.48 | 0.355 | 0.35 | 0.593 | 0.341 | 0.356 | 0.512 | 0.499 | 0.358 | 0.32
SFLSFYTSHVQ [NEFL_Y443_P440L_YF] | 1.25 | 1.41 | 1.23 | 0.533 | 0.697 | 0.682 | 1.21 | 0.421 | 0.428 | 1.3 | 0.758 | 0.462 | 0.693 | 1.1 | 0.503 | 0.531
PTYEHYANSTQ [SLC12A3_Y70] | 2.47 | 1.75 | 0.663 | 0.912 | 2.33 | 0.807 | 1.05 | 2.56 | 1.53 | 1.2 | 1.2 | 5.29 | 0.753 | 0.924 | 0.828 | 0.492
